Results on three molecules are retold here after patent US11421029 (SICHUAN KELUN BIOTECH BIOPHARMACEUTICAL, dated 2022).

Usually EC50 stands for the concentration that produces a half-maximal response.

The target in experiment [1] is T1, recombinant CD16a (Val) protein (UniProt P08637 17-208, limits assumed).
T1 construct: Purchased from Sino Biological Inc. '(Val)' is printed without the position of the valine
Description: ELISA: CD16a (Val) coated, antibody crosslinked with goat F(ab)2 anti-human kappa. On the procedure:
The recombinant CD16a (Val) protein (purchased from Sino Biological Inc.) was added into a 96-well enzyme labeled plate (purchased from Thermo) at 100 ng/well, and coating was carried out at 4° C. overnight. On the next day, the solution in the wells was discarded, the wells were washed with a washing buffer solution (a phosphate buffer solution containing 0.05% Tween-20) for one time and the solution in the wells was discarded. PBS solution containing 2% BSA was added at 100 μl/well for blocking the well at 25° C. for 2 hours, and then solution in the wells was discarded. […] The plate was incubated at 25° C. for 2 hours, then the solution in the wells was discarded and the well was washed with the washing buffer for three times. […] Then solution in the well was discarded and the well was washed with the washing buffer for five times. TMB solution was added to the well at a concentration of 100 μl/well, and the reaction was carried out at room temperature for about 30 minutes. Stop solution at 100 μl/well was added to the plate, and then the plate was put into an ELISA instrument to read OD450 absorbance values.
(ELISA stands for enzyme-linked immunosorbent assay.)

For experiment [2], the target named is T2, recombinant PDL-1-mFc protein (UniProt Q9NZQ7 19-238).
T2 construct: Obtained from Kelun-Biotech; only the UniProt entry is named; not shown: mFc part
T2 sequence (Q9NZQ7 19-238): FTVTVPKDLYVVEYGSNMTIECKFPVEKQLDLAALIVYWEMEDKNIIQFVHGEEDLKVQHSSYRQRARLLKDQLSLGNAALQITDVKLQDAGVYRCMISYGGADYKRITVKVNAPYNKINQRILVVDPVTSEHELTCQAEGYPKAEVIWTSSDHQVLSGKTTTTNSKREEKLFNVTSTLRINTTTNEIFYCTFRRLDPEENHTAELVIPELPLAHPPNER
Put plainly: competitive ELISA: PD1-hFc coated, antibody premixed with PDL-1-mFc, anti-mouse IgG-HRP detection; competitor PD1-hFc. On the procedure:
The recombinant PD1-hFc protein (purchased from Sino Biological Inc.) was added into a 96-well enzyme labeled plate (purchased from Thermo) at 100 ng/well, and the coating was carried out at 4° C. overnight. On the next day, the solution in the wells was discarded and wells were washed one time with washing buffer (phosphate buffer solution containing 0.05% Tween-20) and the solution in the wells was discarded again. PBS solution containing 2% BSA was added at 100 μl/well for blocking the wells at 37° C. for 2 hours, and then the solution in the wells was discarded. […] The plate was incubated at 37° C. for 2 hours, then the solution in the wells was discarded and the well was washed with the washing buffer for three times. HRP conjugated goat anti-mouse IgG(H+L) (purchased from Thermo) solution was added into the plate at 100 μl/well and the plate was incubated at 37° C. for 1 hour. TMB solution was added to the wells, and the reaction was carried out at room temperature for about 5 minutes. Stop solution was added to the plate, and then the plate was put into an ELISA instrument in order to read an OD450 light absorbance value.

Experiment [3] has as its target T2, recombinant PDL-1-mFc protein. Put plainly: ELISA: PDL-1-mFc coated, anti-human IgG-HRP detection. Here is the method:
On the next day, the solution in the wells was discarded, and the wells were washed with a washing buffer (a phosphate buffer solution containing 0.05% Tween-20) for one time and the solution in the wells was discarded. PBS solution containing 2% BSA was added at 100 μl/well and the wells were blocked at […] for 2 hours. Then the solution in the well was discarded. […] The plate was incubated at 37° C. for 2 hours, then the solution in the wells was discarded and the wells were washed for three times. HRP conjugated goat anti-human IgG(H+L) was added into the plate at 100 μl/well and the plate was incubated at 37° C. for 1 hour. TMB solution was added to the wells at a concentration of 100 μl/well, and the reaction was carried out at room temperature for about 5 minutes. A stop solution at 100 μl/well was added to the plate, and then the plate was put into an ELISA plate reader reading OD450 absorbance values.

In experiment [4] the target is PDL-1 expressed on CHO-PDL-1-CD3L cells (UniProt Q9NZQ7 19-290, limits assumed). Description: cell-based or functional assay.
PDL-1 expressed on CHO-PDL-1-CD3L cells, sequence (Q9NZQ7 19-290 limits assumed): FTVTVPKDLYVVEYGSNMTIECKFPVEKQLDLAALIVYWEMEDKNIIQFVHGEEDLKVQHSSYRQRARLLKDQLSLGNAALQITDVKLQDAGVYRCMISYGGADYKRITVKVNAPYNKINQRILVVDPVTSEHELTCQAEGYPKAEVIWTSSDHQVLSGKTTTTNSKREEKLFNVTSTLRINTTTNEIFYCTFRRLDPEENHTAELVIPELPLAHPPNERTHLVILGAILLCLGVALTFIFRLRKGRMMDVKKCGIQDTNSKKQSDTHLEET
The target in experiment [5] is T3, recombinant CTLA-4-His protein (UniProt P16410 36-161, limits assumed).
T3 construct: Obtained from Kelun-Biotech; only the UniProt entry is named; also called CLTA-4-His; not shown: His tag
T3 sequence (looked up): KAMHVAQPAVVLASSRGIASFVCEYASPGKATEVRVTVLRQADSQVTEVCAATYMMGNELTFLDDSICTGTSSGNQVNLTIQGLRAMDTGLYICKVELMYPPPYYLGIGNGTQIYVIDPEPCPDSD
Put plainly: ELISA: CTLA-4-His coated; reference AB02. Here is the method:
(§1) Two batches of recombinant CLTA-4-His proteins (obtained from Kelun-Biotech, Uniport No.: P16410) were diluted with PBS respectively, the dilutes of CTLA-4-His at 100 μl/well were added into a 96-well ELISA plate, and coating was carried out at 4° C. overnight. On the next day, the solution in the wells was discarded, and wells were washed one time with washing buffer and the solution in the wells was discarded again. PBS solution containing 2% BSA was added at 100 μl/well for blocking the well at 37° C. for 2 hours, and then the solution in the well was discarded. […] The HRP conjugated goat anti-human IgG (H+L) solution was added into the plate and the plate was incubated at 37° C. for 1 hour. TMB solution was added to the well, and the reaction was carried out at room temperature for about 8 minutes. The stop solution was added to the plate, and then the plate was put into an ELISA plate reader to read OD450 absorbance values. Fitting curves were made by the means of the experimental data, as shown in FIG. 4A and FIG. 4B, and EC50 was calculated.

For experiment [6], the target named is T3, recombinant CTLA-4-His protein. Put plainly: ELISA: CTLA-4-His batch 1 coated, anti-human IgG-HRP detection. On the procedure: as §1
For experiment [7] the target is unchanged. Description: ELISA: CTLA-4-His batch 2 coated, anti-human IgG-HRP detection. Here is the method: as §1
In experiment [8] the target is T2, recombinant PDL-1-mFc protein. Put plainly: bridging ELISA for both antigens at once: PDL-1-mFc coated, antibody titrated, then 1.5 ug/ml CTLA-4-His, anti-His-HRP detection. Here is the method: On the next day, the solution in the wells was discarded, wells were washed one time with washing buffer (phosphate buffer solution containing 0.05% Tween-20) and solution in the well was discarded again. PBS solution containing 2% BSA was added at 100 μl/well for blocking the wells at 37° C. for 2 hours, and then solution in the wells was discarded. The recombinant bispecific antibodies were diluted 5 folds serially at a start concentration of 100000 ng/mL to get 11 concentration gradients, and were added to the wells at 100 μl/well. The plate was incubated at 37° C. for 2 hours, then the solution in the wells was discarded and wells were washed with the washing buffer for three times. 1.5 ug/ml of the CTLA-4-His protein was added into the plate at 100 μl/well, and plate was incubated at 37° C. for 2 hours. Then the solution in the wells was discarded and wells were washed with the washing buffer for three times. HRP conjugated goat anti-his (purchased from BioLegend) was added into the plate and the plate was incubated at 37° C. for 1 hour. TMB solution was added to the wells, and the reaction was carried out at room temperature for about 5 minutes. Stop solution was added to the plate, and then the plate was put into an ELISA plate reader to read OD450 absorbance values.

T1 sequence (P08637 17-208 F176V limits assumed): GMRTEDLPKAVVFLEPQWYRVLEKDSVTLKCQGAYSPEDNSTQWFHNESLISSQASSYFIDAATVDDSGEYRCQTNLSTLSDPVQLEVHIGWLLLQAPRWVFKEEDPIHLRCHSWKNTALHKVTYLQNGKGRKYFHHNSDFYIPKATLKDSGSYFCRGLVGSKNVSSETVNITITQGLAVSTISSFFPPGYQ

B1: anti-PDL-1 parental antibody AB01 (antibody, human IgG1, kappa)
heavy: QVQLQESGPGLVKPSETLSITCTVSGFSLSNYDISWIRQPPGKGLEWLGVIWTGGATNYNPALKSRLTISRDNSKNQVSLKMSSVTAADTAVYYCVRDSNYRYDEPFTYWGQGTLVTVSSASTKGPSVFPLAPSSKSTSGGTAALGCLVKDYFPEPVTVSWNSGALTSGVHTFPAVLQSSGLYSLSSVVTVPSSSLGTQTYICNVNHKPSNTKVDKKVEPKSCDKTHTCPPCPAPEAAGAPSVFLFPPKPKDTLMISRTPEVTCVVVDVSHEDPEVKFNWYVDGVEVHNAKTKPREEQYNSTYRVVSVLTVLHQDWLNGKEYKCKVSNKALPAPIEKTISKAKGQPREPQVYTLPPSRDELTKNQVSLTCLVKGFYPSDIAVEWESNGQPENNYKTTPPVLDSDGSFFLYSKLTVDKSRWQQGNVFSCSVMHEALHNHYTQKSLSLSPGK
light: EIVLTQSPDTLSVTPKEKVTLTCRASQSIGTNIHWFQQKPGQSPKLLIKYASESISGVPSRFSGSGSGTDFTLTINSVEAEDAATYYCQQSNSWPYTFGQGTKLEIKRTVAAPSVFIFPPSDEQLKSGTASVVCLLNNFYPREAKVQWKVDNALQSGNSQESVTEQDSKDSTYSLSSTLTLSKADYEKHKVYACEVTHQGLSSPVTKSFNRGEC
notes: also called PDL-1 antibody AB01
For the molecule B1, the binding result in experiment [1] is listed as “no binding (tested: 50 ug/ml, then 3-fold dilutions)”. The EC50 turned out to be 3.82 nM in experiment [2] and 0.0155 nM in experiment [3]. Moreover, in experiment [4], the “EC50 of blocking PDL-1/PD1 in the luciferase (NFAT) reporter assay” value (shortened to “EC50 of blocking PDL-1/PD1”) is 1.68 nM.

B2: anti-PDL-1/CTLA-4 recombinant bispecific antibody AB04 (bispecific antibody, human IgG1, kappa)
heavy: not shown
light: EIVLTQSPDTLSVTPKEKVTLTCRASQSIGTNIHWFQQKPGQSPKLLIKYASESISGVPSRFSGSGSGTDFTLTINSVEAEDAATYYCQQSNSWPYTFGQGTKLEIKRTVAAPSVFIFPPSDEQLKSGTASVVCLLNNFYPREAKVQWKVDNALQSGNSQESVTEQDSKDSTYSLSSTLTLSKADYEKHKVYACEVTHQGLSSPVTKSFNRGEC
notes: The scFv is at the C-terminus of the heavy chain; also called AB4
As to B2, the “EC50 as a multiple of that of AB02” value in experiment [5] was 10 to 12 times. Moreover, the binding result in experiment [1] is recorded as “binds”. Moreover, the EC50 in experiment [2] was 1.84 nM; in experiment [6] it was 0.6 nM; in experiment [7], 0.531 nM; in experiment [3], 0.0324 nM; in experiment [8] it was 0.013 nM. In addition, the “EC50 of blocking PDL-1/PD1” value in experiment [4] was determined as 1.53 nM.

B3: anti-PDL-1/CTLA-4 recombinant bispecific antibody AB03 (bispecific antibody, human IgG1, kappa)
heavy: not shown
light: EIVLTQSPDTLSVTPKEKVTLTCRASQSIGTNIHWFQQKPGQSPKLLIKYASESISGVPSRFSGSGSGTDFTLTINSVEAEDAATYYCQQSNSWPYTFGQGTKLEIKRTVAAPSVFIFPPSDEQLKSGTASVVCLLNNFYPREAKVQWKVDNALQSGNSQESVTEQDSKDSTYSLSSTLTLSKADYEKHKVYACEVTHQGLSSPVTKSFNRGEC
notes: The scFv is at the N-terminus of the heavy chain; also called AB003
Regarding B3, the binding result in experiment [1] is “binds”. In addition, the EC50 in experiment [2] is 2.6 nM; in experiment [6], 0.107 nM; in experiment [7] it was 0.0862 nM; in experiment [3], 0.0215 nM; in experiment [8], 0.0162 nM. The “EC50 of blocking PDL-1/PD1” value in experiment [4] is 1.82 nM.
